Measurements as given in article PMC11826918, “Generation of antagonistic biparatopic anti-CD30 antibody from an agonistic antibody by precise epitope determination and utilization of structural characteristics of CD30 molecule” (Antibody Therapeutics, 2025).

Key:
Experiment in all cases: SPR; Biacore T200; antibody captured on anti-human Fc (CM5 chip); CD30-MBP flowed at 0, 2, 20 nM (T426: 0, 20, 200 nM), contact 90 s, dissociation 300 s; fit to a 1:1 binding mode; rough-level analysis
Conditions in all cases: both partners purified
[1] = biological target: T1, BpT10-6
T1 construct: AC10 Fv, N side; T6 Fv, C side; one Fab of each Fv; knobs-into-holes Fc; source: Expi293 fragments joined by intein-mediated protein trans-splicing, purified (Superdex 200 Increase); copies: + + +
T1 sequence (chain, as listed by the source, chain 1 of 4): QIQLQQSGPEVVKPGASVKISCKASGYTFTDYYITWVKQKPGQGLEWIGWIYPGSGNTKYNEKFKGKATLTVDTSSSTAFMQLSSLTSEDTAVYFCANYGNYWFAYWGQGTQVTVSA
T1 sequence (chain, as listed by the source, chain 2 of 4): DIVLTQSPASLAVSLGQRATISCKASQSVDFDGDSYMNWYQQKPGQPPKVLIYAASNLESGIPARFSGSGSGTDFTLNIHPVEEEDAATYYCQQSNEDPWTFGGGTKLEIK
T1 sequence (chain, as listed by the source, chain 3 of 4): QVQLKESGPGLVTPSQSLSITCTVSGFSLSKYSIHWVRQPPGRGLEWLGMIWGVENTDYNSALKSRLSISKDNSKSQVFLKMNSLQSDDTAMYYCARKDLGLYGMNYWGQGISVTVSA
T1 sequence (chain, as listed by the source, chain 4 of 4): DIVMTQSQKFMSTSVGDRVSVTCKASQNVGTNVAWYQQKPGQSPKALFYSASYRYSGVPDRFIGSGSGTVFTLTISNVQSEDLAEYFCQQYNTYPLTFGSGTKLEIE

[2] = biological target: T2, BpT104-25
T2 construct: T104 Fv, N side; T25 Fv, C side; one Fab of each Fv; knobs-into-holes Fc; source: Expi293 fragments joined by intein-mediated protein trans-splicing, purified (Superdex 200 Increase); copies: + + +
T2 sequence (chain, as listed by the source, chain 1 of 4): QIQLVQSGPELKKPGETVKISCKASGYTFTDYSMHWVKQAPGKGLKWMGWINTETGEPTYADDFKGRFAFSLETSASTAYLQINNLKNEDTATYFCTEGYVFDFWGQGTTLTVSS
T2 sequence (chain, as listed by the source, chain 2 of 4): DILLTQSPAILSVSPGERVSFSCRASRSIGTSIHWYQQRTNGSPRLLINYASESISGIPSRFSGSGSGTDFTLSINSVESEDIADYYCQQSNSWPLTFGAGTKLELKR
T2 sequence (chain, as listed by the source, chain 3 of 4): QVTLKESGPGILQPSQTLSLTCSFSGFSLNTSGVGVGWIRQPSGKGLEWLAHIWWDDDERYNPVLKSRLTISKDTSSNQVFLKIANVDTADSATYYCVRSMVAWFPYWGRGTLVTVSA
T2 sequence (chain, as listed by the source, chain 4 of 4): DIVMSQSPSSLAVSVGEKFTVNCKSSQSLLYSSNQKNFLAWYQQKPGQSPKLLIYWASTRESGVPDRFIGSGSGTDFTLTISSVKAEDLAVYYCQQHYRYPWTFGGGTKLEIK

[3] = biological target: T3, BpT25-427
T3 construct: T25 Fv, N side; T427 Fv, C side; one Fab of each Fv; knobs-into-holes Fc; source: Expi293 fragments joined by intein-mediated protein trans-splicing, purified (Superdex 200 Increase); copies: + + +
T3 sequence (chain, as listed by the source, chain 3 of 4): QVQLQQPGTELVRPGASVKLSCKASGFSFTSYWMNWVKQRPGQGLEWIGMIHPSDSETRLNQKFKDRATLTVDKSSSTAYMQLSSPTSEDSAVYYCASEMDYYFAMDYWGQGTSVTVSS
T3 sequence (chain, as listed by the source, chain 4 of 4): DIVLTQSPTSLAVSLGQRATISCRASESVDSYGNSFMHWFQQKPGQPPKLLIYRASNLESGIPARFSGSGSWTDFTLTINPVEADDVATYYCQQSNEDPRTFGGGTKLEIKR

[4] = biological target: T4, BpT10-105
T4 construct: AC10 Fv, N side; T105 Fv, C side; one Fab of each Fv; knobs-into-holes Fc; source: Expi293 fragments joined by intein-mediated protein trans-splicing, purified (Superdex 200 Increase); copies: + + +
T4 sequence (chain, as listed by the source, chain 3 of 4): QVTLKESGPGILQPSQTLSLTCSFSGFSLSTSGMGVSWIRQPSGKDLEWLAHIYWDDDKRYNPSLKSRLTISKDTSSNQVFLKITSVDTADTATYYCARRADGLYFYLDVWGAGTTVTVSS
T4 sequence (chain, as listed by the source, chain 4 of 4): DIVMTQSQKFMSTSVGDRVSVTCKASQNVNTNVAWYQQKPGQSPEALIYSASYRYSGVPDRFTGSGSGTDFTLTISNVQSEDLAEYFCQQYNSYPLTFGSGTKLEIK

[5] = biological target: T5, BpT104-6
T5 construct: T104 Fv, N side; T6 Fv, C side; one Fab of each Fv; knobs-into-holes Fc; source: Expi293 fragments joined by intein-mediated protein trans-splicing, purified (Superdex 200 Increase); copies: + + +

[6] = biological target: T6, BpT107-6
T6 construct: T107 Fv, N side; T6 Fv, C side; one Fab of each Fv; knobs-into-holes Fc; source: Expi293 fragments joined by intein-mediated protein trans-splicing, purified (Superdex 200 Increase); copies: + + +
T6 sequence (chain, as listed by the source, chain 1 of 4): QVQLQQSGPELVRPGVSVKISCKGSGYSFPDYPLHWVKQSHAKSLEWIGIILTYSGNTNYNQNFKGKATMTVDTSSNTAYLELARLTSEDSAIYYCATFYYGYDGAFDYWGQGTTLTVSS
T6 sequence (chain, as listed by the source, chain 2 of 4): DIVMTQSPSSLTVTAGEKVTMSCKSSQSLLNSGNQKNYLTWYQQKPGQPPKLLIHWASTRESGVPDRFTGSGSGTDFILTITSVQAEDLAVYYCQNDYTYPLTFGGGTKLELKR

[7] = biological target: T7, BpT107-427
T7 construct: T107 Fv, N side; T427 Fv, C side; one Fab of each Fv; knobs-into-holes Fc; source: Expi293 fragments joined by intein-mediated protein trans-splicing, purified (Superdex 200 Increase); copies: + + +

[8] = biological target: T8, BpT107-104
T8 construct: T107 Fv, N side; T104 Fv, C side; one Fab of each Fv; knobs-into-holes Fc; source: Expi293 fragments joined by intein-mediated protein trans-splicing, purified (Superdex 200 Increase); copies: + + +

[9] = biological target: T9, BpT25-405
T9 construct: T25 Fv, N side; T405 Fv, C side; one Fab of each Fv; knobs-into-holes Fc; source: Expi293 fragments joined by intein-mediated protein trans-splicing, purified (Superdex 200 Increase); copies: + + +

[10] = biological target: T10, BpT427-405
T10 construct: T427 Fv, N side; T405 Fv, C side; one Fab of each Fv; knobs-into-holes Fc; source: Expi293 fragments joined by intein-mediated protein trans-splicing, purified (Superdex 200 Increase); copies: + + +

[11] = biological target: T11, BpT10-405
T11 construct: AC10 Fv, N side; T405 Fv, C side; one Fab of each Fv; knobs-into-holes Fc; source: Expi293 fragments joined by intein-mediated protein trans-splicing, purified (Superdex 200 Increase); copies: + + +

[12] = biological target: T12, BpT405-6
T12 construct: T405 Fv, N side; T6 Fv, C side; one Fab of each Fv; knobs-into-holes Fc; source: Expi293 fragments joined by intein-mediated protein trans-splicing, purified (Superdex 200 Increase); copies: + + +

B1: Maltose-binding protein-fused CD30 (domain or fragment)
chain: FPQDRPFEDTCHGNPSHYYDKAVRRCCYRCPMGLFPTQQCPQRPTDCRKQCEPDYYLDEADRCTACVTCSRDDLVEKTPCAWNSSRVCECRPGMFCSTSAVNSCARCFFHSVCPAGMIVKFPGTAQKNTVCEPASPGVSPACASPENCKEPSSGTIPQAKPTPVSPATSSASTMPVRGGTRLAQEAASKLTRAPDSPSSVGRPSSDPGLSPTQPCPEGSGDCRKQCEPDYYLDEAGRCTACVSCSRDDLVEKTPCAWNSSRTCECRPGMICATSATNSCARCVPYPICAAETVTKPQDMAEKDTTFEAPPLGTQPDCN
modifications: Construct 1-336 includes signal peptide 1-18, taken as cleaved on secretion; C-terminal MBP carrier and His tag left out; disulfide-bonded, likely glycosylated (Expi293)
[1]
  Kd: 0.27 nM
[2]
  Kd: 0.5 nM
[3]
  Kd: 0.57 nM
[4]
  Kd: 0.066 nM
[5]
  Kd: 0.59 nM
[6]
  Kd: 0.37 nM
[7]
  Kd: 0.6 nM
[8]
  Kd: 0.4 nM
[9]
  Kd: 0.91 nM
[10]
  Kd: 0.31 nM
[11]
  Kd: 0.63 nM
[12]
  Kd: 0.44 nM
